From the supplement of paper PMC10724198
± gives the standard deviation of the averaged measurements.

These sequences were tested on Saccharomyces cerevisiae (assay: protein stability index of tFT-peptide fusion (C-terminal peptide) (PSI (0-1 scale)); higher = more stable (slower turnover)). Conditions: genetic background: wild type; temperature: 30 C.
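Also: PSI is a weighted mean of sequencing reads over stability bins, variants kept only with over 10 reads, mCherry proximal and sfGFP distal, peptide attached via GGGS linker.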

Sequence	protein stability index
IAEFRRDKIVKR	0.706 ± 0.07
IAFFFLHIPPAF	0.569 ± 0.076
IAGKAIKNMTRR	0.676 ± 0.052
IAGRPSSGFPLL	0.686 ± 0.066
IALVFCPMNGRI	0.686 ± 0.014
IARENLNRSRFS	0.6602 ± 0.0056
IATDGARCACDP	0.688 ± 0.022
IATMSVAGGPRL	0.677 ± 0.015
ICGAGPKCCCSV	0.635 ± 0.051
ICIGRDISNQSC	0.703 ± 0.021
ICLPPVSDVLIR	0.676 ± 0.0084
ICVSGALMARAL	0.6798 ± 0.0036
IDFISSVLSYLS	0.663 ± 0.013
IDKRWVKKGGDK	0.64 ± 0.071
IDLGWSRWGALA	0.662 ± 0.086
IDPPSLCTPPPP	0.635 ± 0.034
IDSKSPTHPLHQ	0.71 ± 0.059
IDSSLERVRQHS	0.677 ± 0.058
IDYCWLPDGYQM	0.683 ± 0.068
IECKKIDKKIKE	0.688 ± 0.035
IEIGTEEGKCTT	0.707 ± 0.053
IEKKKIDNKVKS	0.712 ± 0.079
IEKYRKNKKTGK	0.677 ± 0.016

Sequence	protein stability index
IENKKEKKIMIE	0.6652 ± 0.0037
IETQKNNKLRRL	0.699 ± 0.015
IEVSRRDLRIHL	0.6949 ± 0.0032
IEWGPITTLTQT	0.718 ± 0.02
IFFFFHSPYFFS	0.68 ± 0.018
IFGCPEFFCFLL	0.696 ± 0.061
IFLLLHSPSSAS	0.697 ± 0.014
IFPVFHPPFVVI	0.557 ± 0.05
IFWGFSFRGWGC	0.683 ± 0.015
IFYTHRSLSGNL	0.659 ± 0.036
IGCSELSGLGGY	0.769 ± 0.12
IGCTRSREESRE	0.689 ± 0.013
IGFLGYTRSIRN	0.617 ± 0.096
IGGFGVRIYFGG	0.627 ± 0.056
IGLCGWVSGAAT	0.7274 ± 0.0069
IGLSPICAAAYT	0.6515 ± 0.001
IGTSGFFSSQAS	0.743 ± 0.065
IIKKKKKIKRNN	0.683 ± 0.014
IKACGLRSFIKS	0.69 ± 0.059
IKIKKKKKKRHR	0.651 ± 0.059
IKIRIAANRTKY	0.63796 ± 0.00029
IKKIEKANRKTK	0.661 ± 0.034
IKKKKKKESRSS	0.693 ± 0.065

Sequence	protein stability index
IKKKKKKKQRKQ	0.65 ± 0.069
IKKKNRKERQKK	0.678 ± 0.015
IKKTKNKETKKT	0.676 ± 0.045
IKMKRMTKIKKK	0.745 ± 0.049
IKNIKKKKSKTE	0.702 ± 0.065
IKRLNNEKSSKA	0.676 ± 0.035
IKSKERLKKRQS	0.6679 ± 0.00067
IKTQKNKQITKI	0.705 ± 0.071
IKVNAVAWLFGS	0.582 ± 0.032
ILFKSTRAICSL	0.621 ± 0.051
ILGDGRLRLISF	0.682 ± 0.05
ILILDTKPISKT	0.7258 ± 0.006
ILLFLRCFSGFF	0.5619 ± 0.0046
ILLFSLKHRSDH	0.63 ± 0.018
ILLLKFSKLNKK	0.66 ± 0.033
ILLPLRHHSFSD	0.643 ± 0.0087
ILLSLSRWGMAG	0.723 ± 0.024
ILLYSPFGPPSS	0.673 ± 0.026
ILPPPYVPARLS	0.577 ± 0.054
ILSDRVLRVGVK	0.65502 ± 0.00049
ILSWSGLSTGLE	0.876 ± 0.065
ILTALRNQPFLM	0.669 ± 0.033
ILTPPPLPDLLP	0.706 ± 0.019

Sequence	protein stability index
IMKRNKKIKREI	0.711 ± 0.024
INKKKQRIRGKN	0.69 ± 0.064
INLRENETKQRN	0.673 ± 0.038
INPKSGIVVKFR	0.679 ± 0.04
IPDRSLFPWTGR	0.661 ± 0.012
IPFEPSGPFMRN	0.7362 ± 0.007
IPLPPHLTPPST	0.677 ± 0.086
IPPDAFAQLTYS	0.733 ± 0.0093
IPVGTVGTLNAA	0.66 ± 0.057
IQRLGTKNTNRI	0.647 ± 0.039
IRLLNKAACVTM	0.742 ± 0.04
IRLSCGRVGGVV	0.648 ± 0.012
IRLYGQATFRWE	0.625 ± 0.086
IRNDERHSKNQD	0.74 ± 0.062
IRNGYVGNYKGN	0.744 ± 0.025
IRQRSRGGLSSD	0.684 ± 0.021
IRYARSYDMSEC	0.654 ± 0.04
ISCWHGYAKESS	0.671 ± 0.039
ISIVKENSSLTC	0.6552 ± 0.0053
ISPCCGVPWLLR	0.708 ± 0.025
ISRFSLTFPFHR	0.6947 ± 0.0039
ISRSLVDHQARP	0.695 ± 0.045
ISVLSIFVDSFV	0.528 ± 0.0062

Sequence	protein stability index
ISWCPRHPFSSD	0.752 ± 0.014
ISWERIHEKKRK	0.784 ± 0.096
ISYGSGCGIVNH	0.683 ± 0.054
ISYYDVYLSFLF	0.745 ± 0.13
ITGPPTGSPRYR	0.588 ± 0.23
ITIVVATRPPGA	0.617 ± 0.013
ITLFPKGLRANK	0.686 ± 0.045
ITLLYFAGVSVL	0.513 ± 0.0074
ITRATPILSYKK	0.677 ± 0.09
ITSLQAPPEYLH	0.6922 ± 0.0062
ITTVRGALLARY	0.666 ± 0.068
ITYRTSGMGIRA	0.6182 ± 0.0028
IVALDGWPGVEA	0.7226 ± 0.0055
IVCLWVAGHFGL	0.602 ± 0.014
IVHIKRVLGNAA	0.636 ± 0.012
IVPVCFVTDQHA	0.6605 ± 0.00071
IWGGAVQARFKG	0.733 ± 0.14
KADLKTKNMCRL	0.765 ± 0.017
KAEKMRARQKED	0.657 ± 0.011
KAGKFLVGKSLS	0.657 ± 0.026
KCPPQKRPTLIQ	0.679 ± 0.098
KDEVESGRGLIS	0.633 ± 0.044
KDRGEIKIRTKN	0.696 ± 0.039

Sequence	protein stability index
KDTDTAHETERK	0.697 ± 0.033
KDTHNEKKGTPS	0.686 ± 0.082
KECTWRQGKYNA	0.752 ± 0.089
KEEKNEENNKKE	0.641 ± 0.033
KEIRNNEKKKKK	0.657 ± 0.013
KEKIGIQIKKKR	0.675 ± 0.047
KELQKKRIKKKN	0.733 ± 0.078
KEQKNNRKVTKK	0.715 ± 0.046
KERQERGKRKII	0.536 ± 0.035
KGDKIEFVENKY	0.641 ± 0.022
KGDPKLTKKKPL	0.613 ± 0.077
KGKRQNIERCRK	0.644 ± 0.099
KGVEVPGERMVG	0.742 ± 0.021
KGVLTKRAVPST	0.703 ± 0.025
KHGLSDRAPLPK	0.698 ± 0.05
KHGSKEAHKNEN	0.695 ± 0.015
KHKKKKKEYKKK	0.729 ± 0.03
KHKRDRNIYKVT	0.679 ± 0.026
KHRGAQRSRARH	0.645 ± 0.012
KHSRKPTHKKLI	0.69 ± 0.016
KHTKRIRLYKTK	0.7831 ± 0.0034
KIGNDQNVEDRK	0.756 ± 0.059
KIIARMEKGKEI	0.771 ± 0.042

Sequence	protein stability index
KIKEKNEKRELI	0.686 ± 0.11
KIKGVKEEIVKM	0.686 ± 0.029
KIKKKKKNKTNR	0.676 ± 0.014
KIKKKRGKTKKK	0.708 ± 0.018
KIKKNKNKKKKS	0.686 ± 0.009
KIKNYNSGKIKK	0.716 ± 0.024
KIKTNLRQKTKN	0.654 ± 0.016
KIKVKTKKWNIK	0.681 ± 0.018
KILRRIFRNGGA	0.615 ± 0.062
KIMKINIYQKKR	0.691 ± 0.028
KINQDKKKGKKK	0.686 ± 0.079
KIQGGKQKTVDD	0.824 ± 0.25
KIYESPLLEIKI	0.617 ± 0.032
KKEDNKEKYRKK	0.667 ± 0.013
KKEKDKTINKQK	0.697 ± 0.067
KKEKEKRRDRWR	0.661 ± 0.014
KKENKSKKIINR	0.568 ± 0.028
KKGKIKKFIIKK	0.694 ± 0.17
KKGPANEWKRGE	0.685 ± 0.081
KKGRGEGTKKKR	0.602 ± 0.047
KKGYKTVETRIS	0.69 ± 0.082
KKINKEINKEKM	0.693 ± 0.022
